T1: mature myostatin (recombinant, dimeric) (mouse polyprotein used for in-house …, UniProt O08689 268-376)
T1 construct: also called GDF-8; recombinant myostatin
T1 sequence: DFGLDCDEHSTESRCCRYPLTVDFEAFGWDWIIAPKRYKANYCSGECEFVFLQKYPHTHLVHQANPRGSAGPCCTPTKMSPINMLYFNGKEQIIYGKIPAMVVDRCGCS


How the values were obtained:
[1] = target: T1, mature myostatin (recombinant, dimeric); assay: myostatin binding ELISA, 10 ng/well recombinant myostatin coated, CHOK1 supernatants, anti-human kappa HRP, OPD, A490 (Examples 4.1, 4.2)
Procedure: The myostatin binding ELISA was carried out approximately according to this protocol. A 96-well ELISA plate was coated at 4° C. overnight with 10 ng/well recombinant myostatin. This plate was then washed 3-times in wash buffer (PBS, 0.1% Tween-20). The wells were blocked for 1 hour at room temperature with block solution (PBS, 0.1% Tween-20+1% bovine serum albumin [BSA]), before washing 3-times in wash buffer. Antibodies were then titrated out to a suitable concentration range (approximately 100 to 0.001 μg/ml), added to the plate and incubated for 1 hour at room temperature. The plate was then washed 3-times in wash buffer. An anti-mouse IgG HRP-conjugated antibody (P0260 by Dako, this reagent was used according to the manufacturer's instructions) was used to detect binding of mouse antibodies, such as 10B3. An anti-human kappa light chain HRP-conjugated antibody (A7164 by Sigma Aldridge, this reagent was used according to the manufacturer's instructions) was used to detect binding of humanized or chimeric antibodies, such as 10B3 chimera or H0L0. The plate was then washed 3-times in wash buffer and developed with an OPD substrate (from Sigma, used according to the manufacturer's instructions) and read at 490 nm on a plate reader.

[2] = target: T1, mature myostatin (recombinant, dimeric); assay: cell-based or functional assay
[3] = target: T1, mature myostatin (recombinant, dimeric); assay: ActRIIb receptor binding assay (Example 2.5), mean IC50
Procedure: Recombinant soluble ActRIIb (R&D Systems 339-RBB) was coated in wells of an ELISA plate at 1 μg/ml in carbonate buffer overnight at 4° C. Plates were blocked (see Block solution above at 2.3) and washed following standard ELISA protocols. In parallel, 2 nM biotinylated myostatin (in-house, as described in 1.1, biotinylated material) was pre-incubated with an antibody dilution series consisting of 10B3, 10B3C, and a negative control (IgG1 isotype control) for 2 hours at 37° C. The biotinylated myostatin:antibody reactions were then added to the ActRIIb coated plate for 1 hour at 37° C. Standard wash procedures were followed prior to addition of 1:1000 diluted streptavidin-HRP conjugate (Dako P0397) and a further 37° C. incubation for 1 hour. Plates were again washed and assayed at absorbance 490 nm following OPD substrate (Sigma) and acid stop solution treatment Inhibition curves and IC50 values for the inhibition of myostatin activity are shown in FIG. 5 and Table 8 respectively.
H2L2 C91S_G55S F100G_Y, the developability enhanced molecule with the highest apparent potency in the A204 assay was Fc-disabled (by making the following substitutions, using EU numbering system: Leu 235 Ala; and Gly 237 Ala) as exemplified in SEQ ID NO: 99.

[4] = target: T1, mature myostatin (recombinant, dimeric); assay: competition ELISA, directly coated myostatin, competitor 10B3
Procedure: (§1) A 96-well ELISA plate was coated at 4° C. overnight with 2.5 μg/ml polyclonal Antibody to Myostatin (R&D Systems AF788). This plate was then washed 3-times in wash buffer (PBS, 0.1% Tween-20) and blocked for 1 hour at room temperature with block solution (PBS, 0.1% Tween-20+1% bovine serum albumin [BSA]). Then, myostatin was added at 1 μg/ml in block buffer during 1 hour followed by 3-times in wash buffer. Antibodies were then titrated out to a suitable concentration range (approximately 10 to 0.01 μg/ml), added to the plate and incubated for 1 hour at room temperature. The plate was then washed 3-times in wash buffer. An anti-human kappa light chain HRP-conjugated antibody (Sigma A7164, used according to the manufacturer's instructions) was used to detect binding of humanized or chimeric antibodies, such as 10B3 chimera (HcLc) or H0L0. The plate was then washed 3-times in wash buffer and developed with an OPD substrate (according to the manufacturer's instructions) and read at 490 nm on a plate reader.
The protocol set out in 6.7 was used but the plates were initially coated at 4° C. overnight with 0.2 μg/ml of myostatin (recombinant in-house, see 1.1 above). 10B3 (final concentration of 0.3 μg/ml) was added into each well and mixed with antibodies titrated out to a suitable concentration range (approximately 10 to 0.01 μg/ml). An anti-mouse HRP-conjugated antibody (DAKO P0260, used according to the manufacturer's instructions) was used to detect binding of the 10B3 antibody.

[5] = target: T1, mature myostatin (recombinant, dimeric); assay: competition ELISA, myostatin captured by polyclonal antibody, competitor 10B3
Procedure: as §1
The protocol set out in 6.7 was used with the addition of 10B3 (final concentration of […]) to each well and mixed with the antibodies titrated out to a suitable concentration range (approximately 10 to 0.01 μg/ml). An anti-mouse HRP-conjugated antibody (DAKO P0260, used according to the manufacturer's instructions) was used to detect binding of the 10B3 antibody.

[6] = target: T1, mature myostatin (recombinant, dimeric); assay: competition ELISA, biotinylated myostatin on streptavidin, competitor 10B3
Procedure: as §1
The protocol set out in 6.7 was used but the plates were initially coated at 4° C. overnight with 5 μg/ml of streptavidin. Biotinylated myostatin was added at 0.3 μg/ml block buffer during 1 hour followed by 3-times in wash buffer. 10B3 (final concentration of 0.2 μg/ml) was added into each well and mixed with antibodies titrated out to a suitable concentration range (approximately 10 to 0.01 μg/ml). An anti-mouse HRP-conjugated antibody (DAKO P0260, used according to the manufacturer's instructions) was used to detect binding of the 10B3 antibody.

[7] = target: T1, mature myostatin (recombinant, dimeric); assay: cell-based or functional assay; remark: listed apart in the source
[8] = target: T1, mature myostatin (recombinant, dimeric); assay: BIAcore T100 full kinetics, high density myostatin surface, Bivalent model
Procedure: The CDRH3 variants were passed over all three surfaces at 256 nM, 64 nM, 16 nM, 4 nM, 1 nM with a buffer injection (i.e. 0 nM) used for double referencing, regeneration was using 100 mM phosphoric acid. The data was fitted to the Bivalent model inherent to the T100 Biacore machine and was run using HBS-EP at 25° C.

Binder	binding result [1]	ranking order top (1) to bottom (5), myostatin competition ELISA [4]	ranking order top (1) to bottom (5), myostatin competition ELISA [5]	ranking order top (1) to bottom (5), myostatin competition ELISA [6]	Mean IC50, A204 in vitro activity assay (5 nM myostatin) [7] [nM]	other results
H2L2 C91S_G55S F100G_Y (antibody) chain 1: not shown chain 2: DIQMTQSPSSLSASVGDRVTITCKASQDINSYLSWFQQKPGKAPKSLIYRANRLVDGVPSKFSGSGSGTDYTLTISSLQPEDFATYYCLQSDEFPLTFGQGTKLEIKRTVAAPSVFIFPPSDEQLKSGTASVVCLLNNFYPREAKVQWKVDNALQSGNSQESVTEQDSKDSTYSLSSTLTLSKADYEKHKVYACEVTHQGLSSPVTKSFNRGEC	–	–	–	–	–	Mean IC50, A204 in vitro activity assay [2]: 4.42 nM; IC50 [3]: 0.786 nM
H2L2 C91S_G55S F100G_Y-Fc disabled (antibody, human IgG1, kappa) heavy: not shown light: DIQMTQSPSSLSASVGDRVTITCKASQDINSYLSWFQQKPGKAPKSLIYRANRLVDGVPSKFSGSGSGTDYTLTISSLQPEDFATYYCLQSDEFPLTFGQGTKLEIKRTVAAPSVFIFPPSDEQLKSGTASVVCLLNNFYPREAKVQWKVDNALQSGNSQESVTEQDSKDSTYSLSSTLTLSKADYEKHKVYACEVTHQGLSSPVTKSFNRGEC	–	–	–	–	–	IC50 [3]: 0.518 nM
H2L2-C91S_F100G_Y (antibody, human IgG1, kappa, Fc not disabled) heavy: not shown light: DIQMTQSPSSLSASVGDRVTITCKASQDINSYLSWFQQKPGKAPKSLIYRANRLVDGVPSKFSGSGSGTDYTLTISSLQPEDFATYYCLQSDEFPLTFGQGTKLEIKRTVAAPSVFIFPPSDEQLKSGTASVVCLLNNFYPREAKVQWKVDNALQSGNSQESVTEQDSKDSTYSLSSTLTLSKADYEKHKVYACEVTHQGLSSPVTKSFNRGEC	–	2	4	2	3.64	Mean IC50, A204 in vitro activity assay [2]: 11.1 nM
H2L2-C91S_P100B_I (antibody, human IgG1, kappa, V domains shown) VH: QVQLVQSGAEVKKPGASVKVSCKASGYSFTGYFMHWVRQAPGQGLEWMGNIYPYNGVSNYNQRFKARVTMTTDTSTSTAYMELRSLRSDDTAVYYCARRYYYGTGIADWYFDVWGQGTLVTVSS VL: DIQMTQSPSSLSASVGDRVTITCKASQDINSYLSWFQQKPGKAPKSLIYRANRLVDGVPSKFSGSGSGTDYTLTISSLQPEDFATYYCLQSDEFPLTFGQGTKLEIKR	–	5	–	3	4.53	–
H2L2-C91S_V102N (antibody, human IgG1, kappa, name in Kabat numbering, V domains shown) VH: QVQLVQSGAEVKKPGASVKVSCKASGYSFTGYFMHWVRQAPGQGLEWMGNIYPYNGVSNYNQRFKARVTMTTDTSTSTAYMELRSLRSDDTAVYYCARRYYYGTGPADWYFDNWGQGTLVTVSS VL: DIQMTQSPSSLSASVGDRVTITCKASQDINSYLSWFQQKPGKAPKSLIYRANRLVDGVPSKFSGSGSGTDYTLTISSLQPEDFATYYCLQSDEFPLTFGQGTKLEIKR	–	3	2	4	5.51	fold of affinity against F100G_Y [8]: ≤ 2 fold
H2L2-C91S_P100B_F (antibody, human IgG1, kappa, V domains shown) VH: QVQLVQSGAEVKKPGASVKVSCKASGYSFTGYFMHWVRQAPGQGLEWMGNIYPYNGVSNYNQRFKARVTMTTDTSTSTAYMELRSLRSDDTAVYYCARRYYYGTGFADWYFDVWGQGTLVTVSS VL: DIQMTQSPSSLSASVGDRVTITCKASQDINSYLSWFQQKPGKAPKSLIYRANRLVDGVPSKFSGSGSGTDYTLTISSLQPEDFATYYCLQSDEFPLTFGQGTKLEIKR	–	1	1	–	4.24	–

The next lines start with results.

binding result [1]	ranking order top (1) to bottom (5), myostatin competition ELISA [4]	ranking order top (1) to bottom (5), myostatin competition ELISA [5]	ranking order top (1) to bottom (5), myostatin competition ELISA [6]	Mean IC50, A204 in vitro activity assay (5 nM myostatin) [7] [nM]	Binder	other results
binds	–	–	–	–	H2L0 (antibody, human IgG1, kappa, Humanised, human IgG1 wild type/kappa) heavy: not shown light: DIQMTQSPSSLSASVGDRVTITCKASQDINSYLSWFQQKPGKAPKSLIYRANRLVDGVPSKFSGSGSGTDFTLTISSLQPEDFATYYCLQCDEFPLTFGQGTKLEIKRTVAAPSVFIFPPSDEQLKSGTASVVCLLNNFYPREAKVQWKVDNALQSGNSQESVTEQDSKDSTYSLSSTLTLSKADYEKHKVYACEVTHQGLSSPVTKSFNRGEC	–
binds	–	–	–	–	H2L1 (antibody, human IgG1, kappa, Humanised, human IgG1 wild type/kappa) heavy: not shown light: DIQMTQSPSSLSASVRDRVTITCKASQDINSYLSWFQQKPGKAPKSLIYRANRLVDGVPSKFSGSGSGTDFTLTISSLQPEDFATYYCLQCDEFPLTFGQGTKLEIKRTVAAPSVFIFPPSDEQLKSGTASVVCLLNNFYPREAKVQWKVDNALQSGNSQESVTEQDSKDSTYSLSSTLTLSKADYEKHKVYACEVTHQGLSSPVTKSFNRGEC	–
binds	–	–	–	–	H2L3 (antibody, human IgG1, kappa, Humanised, human IgG1 wild type/kappa) heavy: not shown light: DIQMTQSPSSLSASVGDRVTITCKASQDINSYLSWFQQKPGKAPKSLIYRANRLVDGVPSKFSGSGSGTDFTLTISSLQPEDFATYYCLQCDEFPLTFGAGTKLEIKRTVAAPSVFIFPPSDEQLKSGTASVVCLLNNFYPREAKVQWKVDNALQSGNSQESVTEQDSKDSTYSLSSTLTLSKADYEKHKVYACEVTHQGLSSPVTKSFNRGEC	–
–	4	3	1	4.22	H2L2-C91S_V102S (antibody, human IgG1, kappa, name in Kabat numbering, V domains shown) VH: QVQLVQSGAEVKKPGASVKVSCKASGYSFTGYFMHWVRQAPGQGLEWMGNIYPYNGVSNYNQRFKARVTMTTDTSTSTAYMELRSLRSDDTAVYYCARRYYYGTGPADWYFDSWGQGTLVTVSS VL: DIQMTQSPSSLSASVGDRVTITCKASQDINSYLSWFQQKPGKAPKSLIYRANRLVDGVPSKFSGSGSGTDYTLTISSLQPEDFATYYCLQSDEFPLTFGQGTKLEIKR	fold of affinity against F100G_Y [8]: ≤ 2 fold

— patent US20110256132A1 (published 2011)
